Laboratory results published in publication PMC7988490, “Molecular insights into replication initiation in a multipartite genome harboring bacterium Deinococcus radiodurans” (The Journal of Biological Chemistry, 2020).
One block for each molecule: values may come before it.

Assays:
[1] = target: T1, drDnaB (DnaB) (Deinococcus radiodurans R1 (ATCC13939)) (UniProt Q9RWW6); experiment: EMSA; settings: nonspecific, EMSA: 50 mM Tris-HCl pH 8.0, 75 mM KCl, 5 mM MgSO4, 0.1 mM DTT, ~30 nM 32P-DNA, 37 C 15 min
T1 sequence: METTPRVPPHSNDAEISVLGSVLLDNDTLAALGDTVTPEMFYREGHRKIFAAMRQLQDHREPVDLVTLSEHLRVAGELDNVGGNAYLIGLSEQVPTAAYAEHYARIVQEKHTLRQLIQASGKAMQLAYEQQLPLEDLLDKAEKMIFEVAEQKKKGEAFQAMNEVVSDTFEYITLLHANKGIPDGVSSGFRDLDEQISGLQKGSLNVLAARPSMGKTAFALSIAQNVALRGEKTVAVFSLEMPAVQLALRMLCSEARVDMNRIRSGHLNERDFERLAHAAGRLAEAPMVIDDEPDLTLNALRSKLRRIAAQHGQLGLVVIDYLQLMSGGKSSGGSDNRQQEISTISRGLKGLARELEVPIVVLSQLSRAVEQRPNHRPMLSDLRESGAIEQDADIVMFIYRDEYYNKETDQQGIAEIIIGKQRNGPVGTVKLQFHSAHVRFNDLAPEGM

drDnaB (DnaB) [2] = target: T2, drDnaB (DnaB) (Deinococcus radiodurans R1 (ATCC13939), UniProt Q9RWW6 1-448); experiment: EMSA; no ATP; EMSA: 50 mM Tris-HCl pH 8.0, 75 mM KCl, 5 mM MgSO4, 0.1 mM DTT, +/- 1 mM ATP, ~30 nM 32P-DNA, 37 C 15 min; settings: protein: recombinant; tags: N-terminal 6xHis (pET28a); chain copies: 6; label: 32P 5' end
T2 sequence: T1 sequence

drDnaB (DnaB) [3] = target: T2, drDnaB (DnaB); experiment: EMSA; 1 mM ATP; EMSA: 50 mM Tris-HCl pH 8.0, 75 mM KCl, 5 mM MgSO4, 0.1 mM DTT, +/- 1 mM ATP, ~30 nM 32P-DNA, 37 C 15 min; settings: protein: recombinant; tags: N-terminal 6xHis (pET28a); chain copies: 6; label: 32P 5' end
drDnaB (DnaB) [4] = target: T2, drDnaB (DnaB); experiment: EMSA; ATPgS; EMSA: 50 mM Tris-HCl pH 8.0, 75 mM KCl, 5 mM MgSO4, 0.1 mM DTT, +/- 1 mM ATP, ~30 nM 32P-DNA, 37 C 15 min; settings: protein: recombinant; tags: N-terminal 6xHis (pET28a); chain copies: 6; label: 32P 5' end
[5] = target: T3, recombinant drDnaB, purified (D. radiodurans, UniProt Q9RWW6 1-448); experiment: SPR; 20 μM PprA immobilised on a bare gold sensor chip by EDC-NHS at 20 °C (~200 response units); 4–20 μM drDnaA or drDnaB incubated with 1 mM ATP and 1 mM MgCl2 in the mobile phase; 20 mM Tris pH 7.6; Autolab Esprit; settings: both partners purified
T3 construct: DnaB of Deinococcus radiodurans, DR_0549; the drdnaB gene was PCR amplified from genomic DNA of D. radiodurans R1 and cloned in pET28a(+) at BamHI and EcoRI
T3 sequence (looked up): T1 sequence

[6] = target: T4, recombinant drDnaA, purified (D. radiodurans, UniProt Q9RYE7 1-466); experiment: as above; settings: both partners purified
T4 construct: DnaA of Deinococcus radiodurans, DR_0002
T4 sequence (looked up): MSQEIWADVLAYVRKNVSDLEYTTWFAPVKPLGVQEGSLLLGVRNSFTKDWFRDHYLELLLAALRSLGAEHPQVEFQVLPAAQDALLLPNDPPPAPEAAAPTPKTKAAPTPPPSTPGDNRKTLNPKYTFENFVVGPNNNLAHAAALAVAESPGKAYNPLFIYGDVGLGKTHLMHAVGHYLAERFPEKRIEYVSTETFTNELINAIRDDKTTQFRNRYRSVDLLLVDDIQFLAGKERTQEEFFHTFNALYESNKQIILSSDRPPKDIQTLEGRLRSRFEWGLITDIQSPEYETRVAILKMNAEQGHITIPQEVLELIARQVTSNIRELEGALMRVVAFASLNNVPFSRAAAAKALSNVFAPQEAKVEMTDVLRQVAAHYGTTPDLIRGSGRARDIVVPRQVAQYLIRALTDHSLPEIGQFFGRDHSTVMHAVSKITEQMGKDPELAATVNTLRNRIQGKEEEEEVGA

Molecule: oriCI 500 bp (13 DnaA boxes)
- Kd ([1]; 1 mM ATP): 8230 nM
- Kd ([1]; no ATP, +/- 1 mM ATP): 8890 nM

Molecule: GGAATTCCAATGAACCGCAAAACCGCAAAAACCGTACCGA (ssDNA) [ssDNA oligo 99F (40 nt)]
- Kd (drDnaB (DnaB) [2]): 3110 ± 110 nM
- Kd (drDnaB (DnaB) [3]): 1420 ± 50 nM
- Kd (drDnaB (DnaB) [4]): 1020 ± 60 nM

- Kd [5]: 971 nM
- Kd [6]: 541 nM
B1: recombinant PprA (histidine-tagged PprA, His-PprA), purified (natural protein, D. radiodurans, UniProt O32504 1-300, looked up)
chain: MLPLAFLICSGHNKGSMARAKAKDQTDGIYAAFDTLMSTAGVDSQIAALAASEADAGTLDAALTQSLQEAQGRWGLGLHHLRHEARLTDDGDIEILTDGRPSARVSEGFGALAQAYAPMQALDERGLSQWAALGEGYRAPGDLPLAQLKVLIEHARDFETDWSAGRGETFQRVWRKGDTLFVEVARPASAEAALSDAAWDVIASIKDRAFQRELMRRSEKDGMLGALLGARHAGAKANLAQLPEAHFTVQAFVQTLSGAAARNAEEYRAALKTAAAALEEYQGVTTRQLSEVLRHGLRES
